Results as given in patent publication US20210275644A1 (OCTAPHARMA, published 2021).
Values belong to the binder of their own block, whether it stands above or below them.

B1: Recombinant SIG-10 Fc-fusion protein (R&D Systems) (Fc fusion, human, UniProt Q96LC7 17-546, looked up)
chain: MDGRFWIRVQESVMVPEGLCISVPCSFSYPRQDWTGSTPAYGYWFKAVTETTKGAPVATNHQSREVEMSTRGRFQLTGDPAKGNCSLVIRDAQMQDESQYFFRVERGSYVRYNFMNDGFFLKVTALTQKPDVYIPETLEPGQPVTVICVFNWAFEECPPPSFSWTGAALSSQGTKPTTSHFSVLSFTPRPQDHNTDLTCHVDFSRKGVSAQRTVRLRVAYAPRDLVISISRDNTPALEPQPQGNVPYLEAQKGQFLRLLCAADSQPPATLSWVLQNRVLSSSHPWGPRPLGLELPGVKAGDSGRYTCRAENRLGSQQRALDLSVQYPPENLRVMVSQANRTVLENLGNGTSLPVLEGQSLCLVCVTHSSPPARLSWTQRGQVLSPSQPSDPGVLELPRVQVEHEGEFTCHARHPLGSQHVSLSLSVHYSPKLLGPSCSWEAEGLHCSCSSQASPAPSLRWWLGEELLEGNSSQDSFEVTPSSAGPWANSSLSLHGGLSSGLRLRCEAWNVHGAQSGSILQLPDKKGLIST
notes: Bought from R&D Systems; Held on the plate by protein A; not shown: Fc part of the bought fusion protein
B3: Recombinant SIG-F (mouse equivalent of human SIG-8) Fc-fusion protein (R&D Systems) (Fc fusion)
chain: TDGYSLSVTGSVTVQEGLCVFVACQVQYPNSKGPVFGYWFREGANIFSGSPVATNDPQRSVLKEAQGRFYLMGKENSHNCSLDIRDAQKIDTGTYFFRLDGSVKYSFQKSMLSVLVIALTEVPNIQVTSTLVSGNSTKLLCSVPWACEQGTPPIFSWMSSALTSLGHRTTLSSELNLTPRPQDNGTNLTCQVNLPGTGVTVERTQQLSVIYAPQKMTIRVSWGDDTGTKVLQSGASLQIQEGESLSLVCMADSNPPAVLSWERPTQKPFQLSTPAELQLPRAELEDQGKYICQAQNSQGAQTASVSLSIRSLLQLLGPSCSFEGQGLHCSCSSRAWPAPSLRWRLGEGVLEGNSSNGSFTVKSSSAGQWANSSLILSMEFSSNHRLSCEAWSDNRVQRATILLVSGPKVSQAGKSETSRGTVL
notes: Bought from R&D Systems; not shown: Fc part of the bought fusion protein

How the values were obtained:
[1] = molecular target: T1, Plasma derived VWF (pdVWF), biotinylated (human, UniProt P04275 764-2813, biotinylated with EZ-Link Sulfo-NHS-Biotin; natural N- and O-glycans of plasma vWF); assay: ELISA: SIGLEC-Fc captured on a protein A plate (500 ng/well), biotinylated plasma derived vWF 0-0.8 µg/mL, streptavidin-HRP, A492
T1 construct: Plasma-derived multimeric glycoprotein; also called von Willebrand factor; full length vWF
T1 sequence (P04275 764-2813 limits assumed): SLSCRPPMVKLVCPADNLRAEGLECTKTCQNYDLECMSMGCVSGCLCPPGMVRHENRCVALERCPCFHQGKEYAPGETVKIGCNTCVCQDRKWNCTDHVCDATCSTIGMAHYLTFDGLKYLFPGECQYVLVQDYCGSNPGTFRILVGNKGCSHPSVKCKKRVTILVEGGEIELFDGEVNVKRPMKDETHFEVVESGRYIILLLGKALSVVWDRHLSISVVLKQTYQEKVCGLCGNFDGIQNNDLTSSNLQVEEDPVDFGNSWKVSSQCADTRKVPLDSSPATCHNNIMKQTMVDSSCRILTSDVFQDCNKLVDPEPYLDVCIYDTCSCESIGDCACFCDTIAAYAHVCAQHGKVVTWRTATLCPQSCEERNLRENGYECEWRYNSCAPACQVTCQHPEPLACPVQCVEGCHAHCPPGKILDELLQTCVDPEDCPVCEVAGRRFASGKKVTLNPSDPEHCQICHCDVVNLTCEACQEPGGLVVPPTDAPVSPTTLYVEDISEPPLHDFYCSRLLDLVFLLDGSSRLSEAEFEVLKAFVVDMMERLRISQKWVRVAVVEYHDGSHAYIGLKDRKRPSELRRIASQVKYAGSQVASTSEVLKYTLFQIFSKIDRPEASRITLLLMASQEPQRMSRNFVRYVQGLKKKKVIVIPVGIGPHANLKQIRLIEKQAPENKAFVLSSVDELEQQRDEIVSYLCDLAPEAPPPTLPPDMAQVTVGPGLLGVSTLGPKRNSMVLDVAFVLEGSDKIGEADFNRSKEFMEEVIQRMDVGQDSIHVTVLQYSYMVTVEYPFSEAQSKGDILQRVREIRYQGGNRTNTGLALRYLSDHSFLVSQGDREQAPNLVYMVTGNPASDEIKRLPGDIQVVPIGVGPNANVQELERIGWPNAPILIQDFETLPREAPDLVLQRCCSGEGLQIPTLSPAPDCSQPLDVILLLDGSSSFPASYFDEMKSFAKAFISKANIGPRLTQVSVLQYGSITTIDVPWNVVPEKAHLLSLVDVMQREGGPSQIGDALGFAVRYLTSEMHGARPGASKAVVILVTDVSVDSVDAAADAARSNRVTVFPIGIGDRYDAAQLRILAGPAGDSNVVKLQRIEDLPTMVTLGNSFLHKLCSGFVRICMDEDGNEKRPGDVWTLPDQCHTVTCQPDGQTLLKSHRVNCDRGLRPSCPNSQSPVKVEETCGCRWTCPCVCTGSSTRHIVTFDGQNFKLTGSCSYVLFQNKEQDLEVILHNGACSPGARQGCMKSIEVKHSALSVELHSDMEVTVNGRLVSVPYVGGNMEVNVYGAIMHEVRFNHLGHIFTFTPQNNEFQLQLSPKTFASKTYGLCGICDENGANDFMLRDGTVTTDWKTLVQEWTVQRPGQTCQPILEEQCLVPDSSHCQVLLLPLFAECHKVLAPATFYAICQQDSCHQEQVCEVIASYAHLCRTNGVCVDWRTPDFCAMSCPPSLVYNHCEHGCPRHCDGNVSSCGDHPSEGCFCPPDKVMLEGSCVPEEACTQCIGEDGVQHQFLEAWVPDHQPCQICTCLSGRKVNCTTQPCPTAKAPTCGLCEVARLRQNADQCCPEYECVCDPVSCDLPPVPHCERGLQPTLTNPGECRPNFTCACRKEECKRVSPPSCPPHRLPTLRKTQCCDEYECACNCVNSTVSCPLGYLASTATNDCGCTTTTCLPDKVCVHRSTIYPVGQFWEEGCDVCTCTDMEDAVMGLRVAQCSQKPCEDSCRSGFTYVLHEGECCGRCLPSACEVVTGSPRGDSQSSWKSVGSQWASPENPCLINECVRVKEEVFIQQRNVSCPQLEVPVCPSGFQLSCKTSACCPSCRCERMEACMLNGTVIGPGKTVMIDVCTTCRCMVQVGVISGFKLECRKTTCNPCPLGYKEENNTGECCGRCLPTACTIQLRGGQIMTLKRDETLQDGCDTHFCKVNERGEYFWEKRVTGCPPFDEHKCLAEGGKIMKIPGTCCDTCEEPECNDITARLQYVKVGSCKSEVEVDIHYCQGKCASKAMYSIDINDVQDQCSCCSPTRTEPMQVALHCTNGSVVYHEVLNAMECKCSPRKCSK

[2] = molecular target: B3; assay: ELISA: SIGLEC-Fc captured on a protein A plate (500 ng/well), biotinylated cluster fragment at 4 µg/mL, streptavidin-HRP, A492, single concentration; sheet says Siglec 8, legend says SIG-F
[3] = molecular target: T2, Recombinant SIG-5 Fc-fusion protein (R&D Systems) (human, UniProt O15389 17-434, limits assumed); assay: ELISA: SIGLEC-Fc captured on a protein A plate (500 ng/well), biotinylated cluster fragment at 4 µg/mL, streptavidin-HRP, A492, single concentration
T2 construct: Bought from R&D Systems; Held on the plate by protein A; also called SIGLEC 5; not shown: Fc part of the bought fusion protein
T2 sequence (looked up): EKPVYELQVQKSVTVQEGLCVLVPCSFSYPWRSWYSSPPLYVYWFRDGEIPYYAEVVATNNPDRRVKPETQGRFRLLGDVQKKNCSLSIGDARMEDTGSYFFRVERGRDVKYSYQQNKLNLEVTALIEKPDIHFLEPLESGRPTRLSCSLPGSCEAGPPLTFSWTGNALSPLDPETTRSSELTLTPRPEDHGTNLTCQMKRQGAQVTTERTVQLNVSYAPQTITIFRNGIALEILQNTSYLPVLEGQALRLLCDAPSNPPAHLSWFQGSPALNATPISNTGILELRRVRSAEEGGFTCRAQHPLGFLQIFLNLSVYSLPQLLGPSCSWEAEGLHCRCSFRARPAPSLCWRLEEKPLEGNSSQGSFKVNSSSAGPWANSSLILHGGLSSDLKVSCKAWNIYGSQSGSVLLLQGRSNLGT

[4] = molecular target: T3, Recombinant SIG-7 Fc-fusion protein (R&D Systems) (human, UniProt Q9Y286 19-357, limits assumed); assay: as above
T3 construct: Bought from R&D Systems; Held on the plate by protein A; also called SIGLEC 7; not shown: Fc part of the bought fusion protein
T3 sequence (Q9Y286 19-357 limits assumed): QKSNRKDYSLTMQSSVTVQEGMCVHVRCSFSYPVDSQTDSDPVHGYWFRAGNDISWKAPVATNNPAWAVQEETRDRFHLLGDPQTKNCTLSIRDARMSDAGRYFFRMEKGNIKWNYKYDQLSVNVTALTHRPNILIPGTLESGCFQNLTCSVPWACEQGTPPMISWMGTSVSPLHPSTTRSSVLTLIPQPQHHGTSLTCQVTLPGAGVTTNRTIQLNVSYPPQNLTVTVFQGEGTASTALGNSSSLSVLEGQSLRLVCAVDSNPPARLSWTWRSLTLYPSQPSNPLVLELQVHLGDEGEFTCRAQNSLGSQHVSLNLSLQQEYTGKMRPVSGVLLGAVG

[5] = molecular target: T4, Recombinant SIG-9 Fc-fusion protein (R&D Systems) (human, UniProt Q9Y336 18-348); assay: as above
T4 construct: Bought from R&D Systems; Held on the plate by protein A; also called SIGLEC 9; not shown: Fc part of the bought fusion protein
T4 sequence (Q9Y336 18-348 limits assumed): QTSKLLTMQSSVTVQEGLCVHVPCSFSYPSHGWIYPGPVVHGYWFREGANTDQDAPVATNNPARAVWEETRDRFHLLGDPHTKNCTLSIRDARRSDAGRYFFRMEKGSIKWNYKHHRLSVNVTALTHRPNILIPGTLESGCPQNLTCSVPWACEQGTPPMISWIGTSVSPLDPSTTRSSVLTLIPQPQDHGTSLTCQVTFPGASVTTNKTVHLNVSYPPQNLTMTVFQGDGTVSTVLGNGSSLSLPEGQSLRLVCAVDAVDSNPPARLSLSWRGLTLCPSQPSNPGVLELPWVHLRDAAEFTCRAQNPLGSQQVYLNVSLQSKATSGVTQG

[6] = molecular target: B1; assay: as above
[7] = molecular target: T5, Seq11 (recombinant vWF fragment AA 1-505 of SEQ ID NO: 1 with C-terminal Strep-Tag, from HEK 293) (human, UniProt P04275 764-1268, four O-glycosylation sites 485, 492, 493, 500 occupied (core 1, core 2 and/or extended core 1, sialylated)); assay: SIGLEC ELISA, Scatchard analysis of the binding curve (apparent KD); printed SIGLEC 8, ELISA done as in Examples 8 and 9 with SIG-F
T5 construct: Expressed in HEK293 / MEXi-293 cells, purified on Strep-Tactin; not shown: C-terminal Twin-Strep-tag of the pDSG vector (IBA)
T5 sequence (P04275 764-1268): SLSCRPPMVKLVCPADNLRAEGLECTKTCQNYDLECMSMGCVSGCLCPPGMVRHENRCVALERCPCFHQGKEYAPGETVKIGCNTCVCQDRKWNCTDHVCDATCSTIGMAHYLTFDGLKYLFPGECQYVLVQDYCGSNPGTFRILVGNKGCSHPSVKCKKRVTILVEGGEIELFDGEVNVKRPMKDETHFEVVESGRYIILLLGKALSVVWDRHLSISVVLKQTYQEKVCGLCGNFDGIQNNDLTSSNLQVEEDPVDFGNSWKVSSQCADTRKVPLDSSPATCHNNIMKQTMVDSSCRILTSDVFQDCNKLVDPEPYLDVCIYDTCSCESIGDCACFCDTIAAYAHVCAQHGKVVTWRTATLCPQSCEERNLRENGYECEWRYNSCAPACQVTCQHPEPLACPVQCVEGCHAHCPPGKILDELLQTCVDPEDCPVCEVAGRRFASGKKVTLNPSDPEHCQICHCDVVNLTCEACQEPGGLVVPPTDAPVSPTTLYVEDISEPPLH

[8] = molecular target: T6, vWF C-terminal fragment (V8 protease digest of plasma derived vWF) (human, UniProt P04275 2129-2813, biotinylated with EZ-Link Sulfo-NHS-Biotin); assay: ELISA: SIGLEC-Fc captured on a protein A plate (500 ng/well), biotinylated vWF fragment at 1 µg/mL, streptavidin-HRP, A492, single concentration; sheet says Siglec 8, legend says SIG-F
T6 construct: the real molecule is only its C-terminal part; also called C-terminal vWF fragment
T6 sequence (P04275 2129-2813 limits assumed): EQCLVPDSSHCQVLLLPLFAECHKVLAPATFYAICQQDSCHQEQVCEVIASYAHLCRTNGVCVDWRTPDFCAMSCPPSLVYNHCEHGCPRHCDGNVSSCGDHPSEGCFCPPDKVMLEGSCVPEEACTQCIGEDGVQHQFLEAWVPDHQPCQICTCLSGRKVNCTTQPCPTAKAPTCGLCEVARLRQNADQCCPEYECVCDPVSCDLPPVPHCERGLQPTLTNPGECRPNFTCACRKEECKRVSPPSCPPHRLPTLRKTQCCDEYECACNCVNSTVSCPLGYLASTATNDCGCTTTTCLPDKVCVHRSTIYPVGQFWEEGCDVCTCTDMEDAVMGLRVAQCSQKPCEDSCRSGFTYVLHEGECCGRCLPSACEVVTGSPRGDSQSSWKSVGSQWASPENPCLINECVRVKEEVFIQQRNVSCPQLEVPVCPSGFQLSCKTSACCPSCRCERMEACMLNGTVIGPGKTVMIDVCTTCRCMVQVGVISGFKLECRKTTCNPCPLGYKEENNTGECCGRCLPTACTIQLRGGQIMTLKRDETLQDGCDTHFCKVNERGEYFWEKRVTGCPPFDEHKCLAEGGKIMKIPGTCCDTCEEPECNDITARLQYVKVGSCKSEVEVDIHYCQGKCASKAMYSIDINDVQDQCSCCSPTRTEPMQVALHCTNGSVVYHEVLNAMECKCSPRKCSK

Binder: B1
binding result [1]: no binding (tested: 0.8 µg/mL)

binding result [2]: no binding (tested: 4 µg/mL)
binding result [3]: no binding (tested: 4 µg/mL)
binding result [4]: no binding (tested: 4 µg/mL)
binding result [5]: no binding (tested: 4 µg/mL)
binding result [6]: no binding (tested: 4 µg/mL)
B2: Cluster 1 fragment (tryptic glycopeptide of plasma derived vWF, AA 449 to 511) (peptide)
peptide: VTLNPSDPEHC(Maleimide‑PEG2‑Biotin)QIC(Maleimide‑PEG2‑Biotin)HC(Maleimide‑PEG2‑Biotin)DVVNLTC(Maleimide‑PEG2‑Biotin)EAC(Maleimide‑PEG2‑Biotin)QEPGGLVVPPTDAPVSPTTLYVEDISEPPLHDFYC(Maleimide‑PEG2‑Biotin)SR
modifications: also: natural O-glycans (sialylated core 2), sites not given here
notes: also called Cluster I; O-glycosylation Cluster I

Binder: B3
Kd [7]: 1030 nM
binding result [8]: no binding (tested: 1 µg/mL)
